Assay results taken from publication PMC10564622 (Free Radical Biology & Medicine, 2023).

B1: Biotinylated KEAP1 BTB-3-box (residues 48-213) (domain or fragment, human, UniProt Q14145 48-213, looked up)
chain: GNRTFSYTLEDHTKQAFGIMNELRLSQQLCDVTLQVKYQDAPAAQFMAHKVVLASSSPVFKAMFTNGLREQGMEVVSIEGIHPKVMERLIEFAYTASISMGEKCVLHVMNGAVMYQIDSVVRACSDFLVQQLDPSNAIGIANFAEQIGCVELHQRAREYIYMHFGE
modifications: biotin on the avi tag
B2: CUL3_(NTDΔ22) (CUL3 residues 23–388, I342R L346D) (domain or fragment, human, UniProt Q13618 23-388, looked up)
chain: MTMDEKYVNSIWDLLKNAIQEIQRKNNSGLSFEELYRNAYTMVLHKHGEKLYTGLREVVTEHLINKVREDVLNSLNNNFLQTLNQAWNDHQTAMVMIRDILMYMDRVYVQQNNVENVYNLGLIIFRDQVVRYGCIRDHLRQTLLDMIARERKGEVVDRGAIRNACQMLMILGLEGRSVYEEDFEAPFLEMSAEFFQMESQKFLAENSASVYIKKVEARINEEIERVMHCLDKSTEEPIVKVVERELISKHMKTIVEMENSGLVHMLKNGKTEDLGCMYKLFSRVPNGLKTMCECMSSYLREQGKALVSEEGEGKNPVDYRQGLDDLKSRFDRFLLESFNNDRLFKQTIAGDFEYFLNLNSRSPEYL
notes: human CUL3, Uniprot Q13618, residues 23–388, vector pNIC-CTHF, with stabilising mutations I342R and L346D; also called CUL3_(NTDΔN22); source: E. coli BL21(DE3)-pRARE2, purified (nickel sepharose, TEV cleavage, SEC); not shown: His6, C-terminal, cleaved; FLAG, C-terminal, cleaved
B3: KLHL11 BTB-BACK (residues 67-340), unlabeled (domain or fragment, human, UniProt Q9NVR0 67-340, looked up)
chain: EAEDFECSSHCSELSWRQNEQRRQGLFCDITLCFGGAGGREFRAHRSVLAAATEYFTPLLSGQFSESRSGRVEMRKWSSEPGPEPDTVEAVIEYMYTGRIRVSTGSVHEVLELADRFLLIRLKEFCGEFLKKKLHLSNCVAIHSLAHMYTLSQLALKAADMIRRNFHKVIQDEEFYTLPFHLIRDWLSDLEITVDSEEVLFETVLKWVQRNAEERERYFEELFKLLRLSQMKPTYLTRHVKPERLVANNEVCVKLVADAVERHALRAENIQSGT
notes: human KLHL11 BTB and BACK domains, residues 67-340, in vector pNIC28-Bsa4; source: E. coli BL21(DE3)-pRARE2, purified (nickel sepharose, TEV cleavage, SEC); not shown: His6, N-terminal, cleaved
B4: CoraFluor-1-labeled KLHL11 BTB-BACK (domain or fragment, human, UniProt Q9NVR0 67-340, looked up)
chain: B3 chain
modifications: CoraFluor-1 by direct acylation with CoraFluor-1-Pfp (sites not given)
notes: human KLHL11 BTB and BACK domains, residues 67-340, in vector pNIC28-Bsa4; TR-FRET donor protein; source: E. coli BL21(DE3)-pRARE2, purified (nickel sepharose, TEV cleavage, SEC), labeled with CoraFluor-1-Pfp; not shown: His6, N-terminal, cleaved
B5: CoraFluor-1-labeled KLHL11_(BTB-BACK) (domain or fragment, human, UniProt Q9NVR0 67-340, looked up)
chain: B3 chain
modifications: CoraFluor-1 by direct acylation with CoraFluor-1-Pfp (sites not given)
notes: human KLHL11, Uniprot Q9NVR0, residues 67–340, vector pNIC28-Bsa4; source: E. coli BL21(DE3)-pRARE2, purified (nickel sepharose, TEV cleavage, SEC), labeled with CoraFluor-1-Pfp; not shown: His6, N-terminal, cleaved

Columns and labels:
Conditions in all cases: both partners purified
[1] = target: T1, CUL3 N-terminal domain (CUL3NTD, residues 1-388), unlabeled (human, UniProt Q13618 1-388, I342R | L346D); assay: BLI; Octet RED384; biotinylated KEAP1BTB-3-box immobilised on streptavidin tips; analyte in 50 mM HEPES, 300 mM NaCl, 0.5 mM TCEP, 10 mM DTT, 0.01% TWEEN-20; kinetic global fit, 1:1 model; apparent
T1 construct: human CUL3 N-terminal domain, residues 1-388, in vector pNIC-CTHF, with the stabilising mutations I342R and L346D; source: E. coli BL21(DE3)-pRARE2, purified (nickel sepharose, TEV cleavage, SEC); not shown: His6, C-terminal, cleaved; FLAG, C-terminal, cleaved

[2] = target: T1, CUL3 N-terminal domain (CUL3NTD, …); assay: as above; remark: listed apart in the source
[3] = target: T2, full length CUL3-RBX1 complex (human | , UniProt Q13618 1-768; P62877 1-108); assay: as above
[4] = target: T1, CUL3 N-terminal domain (CUL3NTD, …); assay: BLI; Octet RED384; biotinylated KEAP1BTB-3-box immobilised on streptavidin tips; analyte in 50 mM HEPES, 300 mM NaCl, 0.5 mM TCEP, 10 mM DTT, 0.01% TWEEN-20; steady-state equilibrium analysis, 1:1 model; apparent
[5] = target: T2, full length CUL3-RBX1 complex; assay: as above
[6] = target: CoraFluor-1-labeled KEAP1FL (full-length, untagged KEAP1, residues 1–624) (human, UniProt Q14145 1-624, CoraFluor-1 by direct acylation with CoraFluor-1-Pfp (sites not given)); assay: FRET or BRET; TR-FRET protein displacement assay: CoraFluor-1-labeled KEAP1FL + AF488-labeled CUL3NTD, unlabeled protein titrated (cmax 25 μM); assay buffer pH 7.5, 2 h, room temperature; KD from IC50 by Cheng-Prusoff
[7] = target: B5; assay: FRET or BRET; TR-FRET protein displacement assay: CoraFluor-1-labeled KLHL11_(BTB-BACK) + AF488-labeled CUL3NTD, unlabeled protein titrated (cmax 25 μM); assay buffer pH 7.5, 2 h, room temperature; KD from IC50 by Cheng-Prusoff
AF488-labeled CUL3NTD [8] = target: T3, AF488-labeled CUL3NTD (human, UniProt Q13618 1-388, I342R | L346D, AF488 by direct acylation with AF488-Tfp (sites not given)); assay: FRET or BRET; TR-FRET protein displacement assay: CoraFluor-1-labeled KLHL11 (3 nM at 1.5x) and AF488-labeled CUL3NTD (45 nM at 1.5x); unlabeled protein titrated 1:3, 12 points, cmax 25 uM; 2 h at room temperature; 25 mM HEPES, 150 mM NaCl, 1 mM DTT, 0.5 mg/mL BSA, 0.005% TWEEN-20, pH 7.5; KD from IC50 by Cheng-Prusoff
T3 construct: human CUL3 N-terminal domain, residues 1-388, in vector pNIC-CTHF, with the stabilising mutations I342R and L346D; Fluorescent tracer of the TR-FRET assays; also called AF488-CUL3NTD; source: E. coli BL21(DE3)-pRARE2, purified (nickel sepharose, TEV cleavage, SEC), labeled with AF488-Tfp; not shown: His6, C-terminal, cleaved; FLAG, C-terminal, cleaved

[9] = target: T1, CUL3 N-terminal domain (CUL3NTD, …); assay: as above
AF488-labeled CUL3NTD [10] = target: T4, AF488-labeled CUL3NTD (human, UniProt Q13618 1-388, I342R | L346D, AF488 by direct acylation with AF488-Tfp (sites not given)); assay: FRET or BRET; TR-FRET dissociation: pre-equilibrated 20 nM CoraFluor-1-KEAP1 + 300 nM AF488-CUL3NTD, or 2 nM CoraFluor-1-KLHL11 + 45 nM AF488-CUL3NTD; 25 μM unlabeled KLHL11 added, read for 30 min; one-phase decay
T4 construct: human CUL3, Uniprot Q13618, residues 1–388, vector pNIC-CTHF, with stabilising mutations I342R and L346D; also called AF488-CUL3NTD; source: E. coli BL21(DE3)-pRARE2, purified (nickel sepharose, TEV cleavage, SEC), labeled with AF488-Tfp; not shown: His6, C-terminal, cleaved; FLAG, C-terminal, cleaved

[11] = target: B2; assay: FRET or BRET; TR-FRET protein displacement assay: CoraFluor-1-labeled KLHL11_(BTB-BACK) + AF488-labeled CUL3NTD, unlabeled protein titrated (cmax 25 μM); assay buffer pH 7.5, 2 h, room temperature; KD from IC50 by Cheng-Prusoff
AF488-labeled CUL3NTD [12] = target: T4, AF488-labeled CUL3NTD; assay: FRET or BRET; TR-FRET saturation binding: AF488-labeled CUL3NTD titrated (cmax 1000 nM) onto CoraFluor-1-labeled KEAP1 or KLHL11; 25 mM HEPES, 150 mM NaCl, 1 mM DTT, 0.5 mg/mL BSA, 0.005% TWEEN-20, pH 7.5; 2 h, room temperature; One Site – Total Binding model

T2 sequence (Q13618 whole entry, chain 1 of 2, the tested form may be a part): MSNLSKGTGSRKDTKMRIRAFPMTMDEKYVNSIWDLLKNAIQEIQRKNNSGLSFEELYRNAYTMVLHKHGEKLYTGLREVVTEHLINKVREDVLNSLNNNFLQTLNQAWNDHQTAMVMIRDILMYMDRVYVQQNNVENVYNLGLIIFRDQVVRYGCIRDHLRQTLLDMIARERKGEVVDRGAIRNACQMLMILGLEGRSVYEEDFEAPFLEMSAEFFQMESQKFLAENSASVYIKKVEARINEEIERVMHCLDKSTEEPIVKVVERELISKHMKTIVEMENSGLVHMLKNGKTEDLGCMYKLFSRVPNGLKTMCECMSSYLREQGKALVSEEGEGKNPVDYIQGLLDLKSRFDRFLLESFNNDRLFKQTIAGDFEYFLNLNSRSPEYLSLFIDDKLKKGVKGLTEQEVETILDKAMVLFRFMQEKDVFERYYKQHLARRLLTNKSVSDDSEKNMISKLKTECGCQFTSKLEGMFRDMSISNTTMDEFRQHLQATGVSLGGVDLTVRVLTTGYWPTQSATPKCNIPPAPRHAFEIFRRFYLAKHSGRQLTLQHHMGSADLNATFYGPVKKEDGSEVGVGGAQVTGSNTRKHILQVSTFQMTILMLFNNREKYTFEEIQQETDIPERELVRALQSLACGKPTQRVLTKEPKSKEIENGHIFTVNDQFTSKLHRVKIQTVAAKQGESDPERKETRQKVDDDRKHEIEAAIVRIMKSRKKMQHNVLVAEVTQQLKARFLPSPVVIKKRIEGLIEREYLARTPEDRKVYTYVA
T2 sequence (P62877 whole entry, chain 2 of 2, the tested form may be a part): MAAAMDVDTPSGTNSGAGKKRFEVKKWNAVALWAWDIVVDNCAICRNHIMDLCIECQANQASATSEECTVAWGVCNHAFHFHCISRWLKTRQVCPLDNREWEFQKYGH
CoraFluor-1-labeled KEAP1FL (full-length, untagged KEAP1, residues 1–624), sequence (Q14145 whole entry, the tested form may be a part): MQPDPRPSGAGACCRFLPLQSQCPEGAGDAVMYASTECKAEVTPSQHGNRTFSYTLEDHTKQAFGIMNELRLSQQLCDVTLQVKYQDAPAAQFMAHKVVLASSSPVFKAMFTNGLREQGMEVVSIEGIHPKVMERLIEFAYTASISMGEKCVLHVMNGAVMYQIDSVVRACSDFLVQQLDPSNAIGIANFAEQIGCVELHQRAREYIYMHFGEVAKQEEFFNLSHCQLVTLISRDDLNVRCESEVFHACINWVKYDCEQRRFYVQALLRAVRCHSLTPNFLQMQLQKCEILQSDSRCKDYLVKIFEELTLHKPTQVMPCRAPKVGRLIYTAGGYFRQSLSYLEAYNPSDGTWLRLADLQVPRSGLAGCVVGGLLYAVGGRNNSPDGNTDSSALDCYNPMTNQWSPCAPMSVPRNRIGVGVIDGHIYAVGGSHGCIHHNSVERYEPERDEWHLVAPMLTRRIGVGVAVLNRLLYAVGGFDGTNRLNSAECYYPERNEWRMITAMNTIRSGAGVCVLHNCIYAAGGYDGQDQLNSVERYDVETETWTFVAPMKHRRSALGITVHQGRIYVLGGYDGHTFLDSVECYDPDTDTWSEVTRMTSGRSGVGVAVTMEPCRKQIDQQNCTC

Binder: B1
koff [1]: 0.189 s⁻¹
kon [1]: 36600 M⁻¹ s⁻¹
Kd [2]: 5.2 µM
Kd [3]: 5.6 µM
koff [3]: 0.187 s⁻¹
kon [3]: 33200 M⁻¹ s⁻¹
Kd [4]: 2.9 µM
Kd [5]: 4.4 µM

Binder: B2
Kd [6]: 13.8 µM
fold decrease of affinity against CUL3NTD [7]: > 200 fold

Binder: B3
Kd (AF488-labeled CUL3NTD [8]): 0.014 µM

Binder: B4
Kd [9]: 0.008 µM

Binder: B5
koff (AF488-labeled CUL3NTD [10]): 0.00381 s⁻¹
Kd [11]: 1.84 µM
Kd (AF488-labeled CUL3NTD [12]): 0.02 µM
